Data taken from PMC3457997.

How the values were obtained:
[1] = target: CD95(1–66)-mCherry (human); experiment: SEC; concentrated serum-free supernatants of transfected HEK cells on Sephacryl S-300 and S-200 High Resolution columns in PBS, 0.5 mL/min; fractions analysed by immunoblot with anti-DsRed
[2] = target: CD95(1–158)-mCherry (human); experiment: as above

Substance	stoichiometry N [1]	stoichiometry N [2]
CD95(1–66)-mCherry (domain or fragment)	2	
CD95(1–158)-mCherry (domain or fragment)		3
